Experimental data as given in paper PMC9719943, “Expression and structural analysis of human neuroligin 2 and neuroligin 3 implicated in autism spectrum disorders” (Frontiers in Endocrinology, 2022).

Molecular target: the molecule itself
Assay: cryo-EM structure; purified NLGNs at 0.25 mg/ml on holey carbon grids; protein in 25 mM HEPES pH 7.5, 150 mM NaCl; homodimer, C2 symmetry

Row | Protein | stoichiometry N
1 | full-length human NLGN3 (natural protein, UniProt Q9NZ94 38-848, looked up, neuroligin 3 (NLGN3), human, full-length gene in pCDNA3.1; UniProt ID Q9NZ94 printed for NLGN3; also called neuroligin 3) QAPAPTVNTHFGKLRGARVPLPSEILGPVDQYLGVPYAAPPIGEKRFLPPEPPPSWSGIRNATHFPPVCPQNIHTAVPEVMLPVWFTANLDIVATYIQEPNEDCLYLNVYVPTEDVKRISKECARKPNKKICRKGGSGAKKQGEDLADNDGDEDEDIRDSGAKPVMVYIHGGSYMEGTGNMIDGSILASYGNVIVITLNYRVGVLGFLSTGDQAAKGNYGLLDQIQALRWVSENIAFFGGDPRRITVFGSGIGASCVSLLTLSHHSEGLFQRAIIQSGSALSSWAVNYQPVKYTSLLADKVGCNVLDTVDMVDCLRQKSAKELVEQDIQPARYHVAFGPVIDGDVIPDDPEILMEQGEFLNYDIMLGVNQGEGLKFVEGVVDPEDGVSGTDFDYSVSNFVDNLYGYPEGKDTLRETIKFMYTDWADRDNPETRRKTLVALFTDHQWVEPSVVTADLHARYGSPTYFYAFYHHCQSLMKPAWSDAAHGDEVPYVFGVPMVGPTDLFPCNFSKNDVMLSAVVMTYWTNFAKTGDPNKPVPQDTKFIHTKANRFEEVAWSKYNPRDQLYLHIGLKPRVRDHYRATKVAFWKHLVPHLYNLHDMFHYTSTTTKVPPPDTTHSSHITRRPNGKTWSTKRPAISPAYSNENAQGSWNGDQDAGPLLVENPRDYSTELSVTIAVGASLLFLNVLAFAALYYRKDKRRQEPLRQPSPQRGAGAPELGAAPEEELAALQLGPTHHECEAGPPHDTLRLTALPDYTLTLRRSPDDIPLMTPNTITMIPNSLVGLQTLHPYNTFAAGFNSTGLPHSHSTTRV | 2
2 | extracellular domain of human NLGN2 (domain or fragment, UniProt Q8NFZ4 15-677, looked up, neuroligin 2 (NLGN2), human, extracellular domain; Subcloned into the secretory vector pSecTAG2B; also called neuroligin 2; NLGN2 ectodomain; source: Expi293F (HEK293F) cells, transiently transfected, purified (nickel resin, Superose 6 SEC)) QRGGGGPGGGAPGGPGLGLGSLGEERFPVVNTAYGRVRGVRRELNNEILGPVVQFLGVPYATPPLGARRFQPPEAPASWPGVRNATTLPPACPQNLHGALPAIMLPVWFTDNLEAAATYVQNQSEDCLYLNLYVPTEDGPLTKKRDEATLNPPDTDIRDPGKKPVMLFLHGGSYMEGTGNMFDGSVLAAYGNVIVATLNYRLGVLGFLSTGDQAAKGNYGLLDQIQALRWLSENIAHFGGDPERITIFGSGAGASCVNLLILSHHSEGLFQKAIAQSGTAISSWSVNYQPLKYTRLLAAKVGCDREDSAEAVECLRRKPSRELVDQDVQPARYHIAFGPVVDGDVVPDDPEILMQQGEFLNYDMLIGVNQGEGLKFVEDSAESEDGVSASAFDFTVSNFVDNLYGYPEGKDVLRETIKFMYTDWADRDNGEMRRKTLLALFTDHQWVAPAVATAKLHADYQSPVYFYTFYHHCQAEGRPEWADAAHGDELPYVFGVPMVGATDLFPCNFSKNDVMLSAVVMTYWTNFAKTGDPNQPVPQDTKFIHTKPNRFEEVVWSKFNSKEKQYLHIGLKPRVRDNYRANKVAFWLELVPHLHNLHTELFTTTTRLPPYATRWPPRPPAGAPGTRRPPPPATLPPEPEPEPGPRAYDRFPGDSRDYSTELS | 2
